Assay results: paper doi:10.1101/2021.08.28.458007v1

Substrate: O=C1O[C@H]([C@@H](O)CO)C(=O)C1=O
Experiment: purified protein
[1] = co-substrate GSH (2 mM), 50 mM phosphate pH 6.8, 0.2 mM EDTA
[2] = co-substrate GSH, 50 mM phosphate pH 6.8, 0.2 mM EDTA

B1: PgDHAR (Cenchrus americanus) (protein)
chain: MAVEVCVKAAVGAPDILGDCPFSQRVLLTLEEKKITYEMKLVDLSNKPEWFLKISPEGKVPVFNSGDGKWIADSDVITQVIEEKFPTPSLVTPPEYASVGSKIFPSFVKFLKSKDASDGSEKALLDELQALDEHLKAHGPYISGENVSAADLSLGPKLFHLQVALEHFKGWKIPENLTSVHAYTKALFSRESFVKTKPANQYLIAGWAPKVNA
- Km [1]: 159.2 (±11.4) μM
- kcat [1]: 2271.663 s⁻¹

B2: PgDHAR (Cenchrus americanus; K8A) (protein)
chain: MAVEVCVAAAVGAPDILGDCPFSQRVLLTLEEKKITYEMKLVDLSNKPEWFLKISPEGKVPVFNSGDGKWIADSDVITQVIEEKFPTPSLVTPPEYASVGSKIFPSFVKFLKSKDASDGSEKALLDELQALDEHLKAHGPYISGENVSAADLSLGPKLFHLQVALEHFKGWKIPENLTSVHAYTKALFSRESFVKTKPANQYLIAGWAPKVNA
- Km [2]: 1842 (±414.3) μM
- kcat [2]: 89.34 s⁻¹

B3: PgDHAR (Cenchrus americanus; D19A) (protein)
chain: MAVEVCVKAAVGAPDILGACPFSQRVLLTLEEKKITYEMKLVDLSNKPEWFLKISPEGKVPVFNSGDGKWIADSDVITQVIEEKFPTPSLVTPPEYASVGSKIFPSFVKFLKSKDASDGSEKALLDELQALDEHLKAHGPYISGENVSAADLSLGPKLFHLQVALEHFKGWKIPENLTSVHAYTKALFSRESFVKTKPANQYLIAGWAPKVNA
- Km [2]: 245.7 (±75.7) μM
- kcat [2]: 20.35 s⁻¹

B4: HsGSTO1-1 (Homo sapiens) (protein)
chain: SGESARSLGKGSAPPGPVPEGSIRIYSMRFCPFAERTRLVLKAKGIRHEVININLKNKPEWFFKKNPFGLVPVLENSQGQLIYESAITCEYLDEAYPGKKLLPDDPYEKACQKMILELFSKVPSLVGSFIRSQNKEDYAGLKEEFRKEFTKLEEVLTNKKTTFFGGNSISMIDYLIWPWFERLEAMKLNECVDHTPKLKLWMAAMKEDPTVSALLTSEKDWQGFLELYLQNSPEACDYGL
- Km (co-substrate GSH, marked 'This study' (footnote a)): 138.2 (±27.07) μM
